Measured values from the nanobody polyreactivity screen of Harvey et al. (2022).

Assay: yeast display, Sf9 membrane polyspecificity reagent, FACS + sequencing; frameworks hold sequencing errors
Procedure, shortened: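 Using colony PCR, genes from sorted yeast display clones were amplified, then sequenced on MiSeq at 2 × 250 and filtered by CDR length. The clones had been stained with 10% biotinylated, detergent-solubilized Sf9 membrane reagent for 1 hour at 4 °C and sorted by FACS into low and high (top ~1%) gates on anti-HA and streptavidin fluorescence. Polyreactivity labels come from the gate of origin.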

| Sequence | polyreactivity (PSR sort gate) |
| --- | --- |
| QVQLVESGGGLVQAGGSLRLSCAASGLTFASYAMGWYRQAPGKERDLVARISRSGGSTYYADSVKGRFTISRDNAKNTVYLQMNSLKPEDTAVYYCAADYIFRRYPVGGIYDYDYWGQGTQVTVSS | high polyreactivity |
| QVQLVESGGGLVQAGGSLRLSCAASGRTFYYYGRVWYRQAPGKERDFVAAITRSGGRTYYADSVKGRFTISRDNAKNTVYLQMNSLKPEDTAVYYCATGGYYRYSGLSVYGYPYEYWGQGTQVTVSS | high polyreactivity |
| QVQLVESGGGLVQAGGSLRLSCAASGINFSPYAMGWYRQAPGKERELVAAISYSGGSTYYADSVKGRFTISRDNAKNTVYLQMNSLKPEDTAVYYCAVVYSYYLAVLGYWDYDYWGQGTQVTVSS | low polyreactivity |
| QVQLGETGGGLVQAGGSLRLICAASGSTFTINGMGWSRQAPGKDRELVAAITSGGSTYYADSVKGRFTISRDNAKNTVYLQMNSLKPEDTAVYFCAAADGRDYWGQGTQVTVSS | low polyreactivity |
| QVQLVESGGGLVQAGGSLRLSCAASGRTFVYNAMGWYRQAPGKERELVAAITRSGGRTYYADSVKGRFTISRDNAKNTVYLQMNSLKPEDTAVYYCSARISRWYAYGTDIKEGDYWGQGTQVTVSS | low polyreactivity |
| QVQLVESGGGLVQAGGSLRLSCAASGFIFGGYAMGWYRQAPGKEREFVAAIRQRGGSTYYADSVKGRFTISRDNAKNTVYLQMNSLKPEDTAVYFCAATVRAVQASVRYGYWGQGTQVTVSS | high polyreactivity |
| QVQLVESGGGLVQAGGSLRLTWAASGFILGYYAMGWYRQAPGKERELLPGISRSGGSTYYADSVKGRYTISRDNAKNTVYLQMNSLKPEDTSVYYCAKYPPYYTAYGWKYVYWGQGTQVTLSS | high polyreactivity |
| QVQLVESGGGLVQAGGSLRLSCAASGFTFYYNAMGWYRQAQGKERELVAAMSRSGGRTYYADSVKGRFTISRDNAKNTVYLQMNSLKPEDTAVYYCNRRTRPDGGESDYWGQGTLVTVSS | high polyreactivity |
| QVQLVESGGGLVQAGGSLRLSCAASGRTFRVNTMGWYRQAPGQEWELVAAITSSDRTYYADSVKGRFTISRDNAKNTVYLQMNSLKPDDTAVYYCAAYSEYYGVYYWGQGTQVTVSS | low polyreactivity |
| QVQLVESGGGLFQAGGSLRLSCAATVSNYRYYAMGWYRQAPGKETELVAYITSSGGSTYYADSVKGLFTISRDYAKNTVYLQMNSLKPEDTAVYYCAALSWLYVYPFTEYDYWGQGTQVTVSS | low polyreactivity |
| QVQLVESGGGLVQAGGSLRLSCAASGGTFEFYTMGGYRQAPGKERELVAVINASGDSTYYADSVKGRFTISRDNAKNTVYLQMNSLKPEYTAVYYCAADHRGEYDYWGQGTQVNVSS | low polyreactivity |
| QVQLVESGGGLVQAGGSLRLSCAASGRTFRYNAMVWFRQAPGKERELVAAISSGDRTNYADSVKGRFTISRDNAKNTVYLQMNSLKPEDTAVYYCAAPTDSYYEFDYWGQGTQVTVSS | low polyreactivity |
| QVQLVESGGGLVQAGGSLRLSCAASGSIFRAYAMGWYRQAPGKERELVAAISWGGGSTSYADSVKGRFTISRDNAKNTVYLQMNSLKPEDTAVYYCNKVSFSKRRDYYWGQGTQVTVSS | high polyreactivity |
| QVQLVESGGGLVQAGGSLRLSCAASGSTFIDNTMGWYRQAPGKERELVASIRRSGGSTYYADSVKGRFTISRDNAKNTVYLQMNSLKPEDTAVYYCDVATRYHTTFWYYYWGQGTQVTVSS | high polyreactivity |
| QVQLVESGGGLVQAGGSLRLTCAASGNIFGIYTMGWYRQAPGKEREFFAVISLSGTSTYYADSVKGRFTISRDNAKNTVYLQMKSLKPEDTAVYYCNARTPHNKGRRRAYDYWGQATQVTVSS | high polyreactivity |
| QVQLVETGGGLVQAGGSLRLSCAASGSIFVYHAMGGYRQAPGKETEFVAVISNSGSRTYYADSVKGRFTISRDNAKNTVYLQMNSLKPEDTAVYYCAARYYYFQRAYDYWGQGTQVTVSS | high polyreactivity |
| QVQLVESGGGLVQAGGSLRLSCAASGRIFYGYVMGWYRQAPGKERELVAAISWSAGRTYYADSVKGRFTISRDNAKNTVYLQMNSLKPEDTAVYYCAARYFSLYVWSTFEYWGQGTQVTVSS | high polyreactivity |
| QVQLVESGGGLVQAGGSLRLSCAASGSTFVVYAMGWYRQAPGKERELVASISSGDSTTYADSVKGRFTISRDNAKNTVYLQMNSLKPEDTAVYYCNADYAYYLDVYSPYDSWGQGTQVTVSS | low polyreactivity |
| QVQLVESGGGLVQAGGSLRLSCAASGSILSYYAMGWYRLAPGKEREFVAAISSGGGTYYADSVKGRFTISRDNAKNTVYLQMNSLKPEDTAVYYCNAVHASSIQFEYWGQGTKVTVSS | low polyreactivity |
| QVQLVESGGGLVQAGGSLRLSCAASGSTFYYYAMGWYRQAPGKERELVASITTGGGSTYYADSVKGRFTISRDYAKNTVYLQMNSLKPEDTAVYYCAAALAYYYWWYDYWGQGTQVTVSS | low polyreactivity |
| QVQLVESVGGLVEAGGSLRLSCAASGSILGGYAMGWYLQAPGKESELVAAITSSGGRTYYADCVKGRFTMSRDNAKNTVYLQMNSLKPEDTAVYYCAARYSRWRYNYKDYAYWGQGTQVTVSS | high polyreactivity |

| Sequence | polyreactivity (PSR sort gate) |
| --- | --- |
| QVQLVESGGGLVQAGGSLRLSCAASGRTYKYYALGWYRQARGKERELVAAITSGASTNYADSVKGRFTISRDNAKNTVYLQMNSLKPEDTAVYYCAARKAYFFDRYGYWGLGTQVTVSS | high polyreactivity |
| QVQLVESGGGLVQAGGSLRLSCAASGFIFKRYAMGWNRQAPGKVRELVAAITSRGGSTYYADSVKGRFTISRDNAKNTVYLQMNSLKPEDTAVYYCNAGTSAGSYDYWGQGTQVTVSS | high polyreactivity |
| QVQLVESGGGLVQAGGSLRLSCAASGFTFRYNAMGWYRQAPGKEREVVAAITSGGNTNYADSVKGRFTISRDNAKNTFYLQMNSLKPEDTAVYYCNTAWRDYVARLGGVGYDYWGQGTQVTVSS | high polyreactivity |
| QVQLVESVGGLVQAGGSLRLSCAASGRIFYPYAMGWYRQAPGKERELVAAITRGGITTYADSVYGRFTISRDNAKNTVYLQMNSLKPEDTAVYYCNAVRWYGRMDYWGQGTQVTVSS | low polyreactivity |
| QVQLVESGGGVVQAGGSLRLSCAASGSTFGHNAMGWYRQAPGKERELVAVITSGGSTYYADSVKGRFTISRDNAKNTVYLQMNSLKPEDTAVYFCATDGGNSATVRYVASDYWGQGTQVTVSS | high polyreactivity |
| QVQLVESGGGLVQAGGSLRLSCAASGSIFAPYAMGWYRQAPGKEREFVATITWGGGRTYYADSVKGRFTISRDNAKNTVYLQMNSLKPEDTAVYYCAAAIYYGSLGLFDYWGQGTQVTVSS | high polyreactivity |
| QVQLVESGGGLVQAGGSLRLSCAASGRTFVYNAMGWYRQARGKEREFVAAISSGGGTNYADSVKGRFTISRDNAKNTVYLQMNSLQPEDTAVYYCAAGSVSIFRGYRDYYNPKEYDYCGQGTQVTVSS | low polyreactivity |
| QVQLVESGGGLVQAGGSLRLSCAASGSIFGKYALGWYRQAPGIERELVAAISGRGGGTYYADSVKGRFTISRDNAKNTVYLQVNRLNPEDTGVYYCNAYYSRLRYDYWGQGTQVTVSS | high polyreactivity |
| QVQLVESGGGLVQAGGSLRISCAPSGGILYHYVMGWYRQAPGTERELVAAISRAGRTYYADSVKGRFTISRDNAKNTVYLQMNSLKPEDTAVYYCNAYFRYFYWGLGTQVTVSS | high polyreactivity |
| QVQLVESGGGLVQAGGSLRLSCASSGNIFRYYVMGWYRKAPGKEREFVAAITSSGGSTYYADSVKGRFTISRDNAKNTVYFQINSLKPDDSEVYYCAKDYWDPGWAEYDYWGQCTQVTVSS | low polyreactivity |
| QVQLVESGGGLVQAGGSLRLSCAPSGGTFPFNAMGWYRQAPGKERELVAAISGRSGRTYYADSVKGRFTISRDNAKNTVDLQMNRLKPEDTAVYYCAARRWRPYDYWGQGTQVTVSS | high polyreactivity |
| QVQLVESGGGLVQAGGSLRLSCAASGLTFLYYAMGWYRQAPGKEREFVAAIDISGGSTYYADSVKGRFTISRDNAKKTVYLQMYSLKPEDTAVYYCAVEPWYYLAGRSQYDYWGQGTQVTVSS | low polyreactivity |
| QVQLVESGGGLVQAGGSLRLSCAASGFTFSRYAMAWYRQAPGKERELVAAITWSGGRTYYADSVKGRFTISRDNAKNTVYLQMNSLKPEATAVYYCAAVYHVWKYHYDYWGQGTQVTVSS | high polyreactivity |
| QVQLVESGGGLVQAGGSLRLSCAASGSTFSGYAMGWYRLAPGKERELVASISSGGRTTYADSVKGRFTISRDNAKYTVYLQMNSLKPEDTAVSYCANRIRPGYARLYSWGQGTQVTVSS | high polyreactivity |
| QVQLVESGGGLVQAGGSLRLSCAASGSTFQRYTMGWYSQAPGKERELVAAISQSGGRTYYADSVKGRFTISREHAKKTVYLEMNSLKPEDTAVYSCNAASRTKFDYWGQGTQVTVSS | high polyreactivity |
| QVQLVESGGGLVQAGGSLRLSCAASGRIVWGYAMGWYTPAPGKERDLVATITRGGSTNYADSVKGRFTISRDNAKNTVYLQMNSLKPEDTAVYYCARDWGKSEYDYWGQGTQVTVSS | high polyreactivity |
| QVQLVESGGGLVQAGGSLRLSCAASGFIFRYNTMGWYRQAPGIVRELVAAISVSGARTYYADSVKGRFTISRDNAKKTVYLQMNSLKPEDTAVYYCNRRYPFYSRYNNDYWGLGTQVTVSS | high polyreactivity |
| QVQLEESCGGLVQAGGSLRLSCAASGSTFTIYAMGWYRQAPGKERELVAVISSSGGSTYYADSVKGRFTISRDNAKNTVYLQMNSLKPEDTAVYYCAADTRYFGGYLTLYYWGQGTQVTVSS | low polyreactivity |
| HVQLVESGGGLVQAGGSLRLSCAASGRIFLIYAMGWYRQAPGKEWELFAAIRSGGSTNYADSVKGRFTISRDNAKNTVYLLMNSLNPEDTAVYYCAVRSRVYPSRVKYDYWGQGTQVTVSS | high polyreactivity |
| QVQLVESGGGLVQAGGCLRLSCAASGFTFPFYAMGWYRQAPGKERELVAAITSRGGSTYYADSVKGRFTISRDNAKNTVYLQMNSLKPEHTAVYYCAARYTPRRYYYWGQGTQVTVSS | high polyreactivity |
